In US20030175681A1:

Biological target: rhCMV (strain 68.1) US28 homolog(s): fractalkine-binding receptor protein expressed on rhCMV-infected rhesus dermal fibroblasts and on rhCMV virions
Assay: homologous competition: unlabeled fractalkine displaces 125I-fractalkine from rhCMV-infected rhesus dermal fibroblasts, filter binding

fractalkine, sequence (P78423 25-100 limits assumed): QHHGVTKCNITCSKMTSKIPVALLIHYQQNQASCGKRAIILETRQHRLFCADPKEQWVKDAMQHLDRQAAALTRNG

Substance: fractalkine (from UniProt P78423 25-100) (ligand)
- IC50: 0.044 nM
